Results as given in US20230220021A1, “CYCLIC PEPTIDE INHIBITORS OF PSD-95 AND USES THEREOF” (University of Copenhagen, priority 2020, published 2023).
Where a SMILES comes first, the peptide text is derived from it. [ ]: non-standard residue; d: D form.

Target: T1, PSD-95-PDZ2 (Homo sapiens, UniProt P78352)
T1 construct: 7xHis (N); made in house; host or cells: Escherichia coli B21 pLys (for the mutants, 'as previously described')
Test: Fluorescence polarization (FP) competition assay against cyclic nNOS TAMRA probe
Type: binding
Conditions: FP competition; for fold lowered (decreased) binding affinity of the cyclic peptide: relative to unsubstituted cyclic peptide

T1 sequence (P78352 160-246 limits assumed): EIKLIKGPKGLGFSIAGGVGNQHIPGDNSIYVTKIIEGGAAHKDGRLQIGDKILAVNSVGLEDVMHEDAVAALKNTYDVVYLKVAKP

Row | Compound | effect on interaction with PSD-95-PDZ2 (in words) | fold lowered (decreased) binding affinity of the cyclic peptide [fold] | further results
1 | CC[C@H](C)[C@@H]1NC(=O)[C@H]([C@@H](C)O)NC(=O)[C@H](CCCCN)NC(=O)[C@@H]2CCCN2C(=O)[C@H](CCC(=O)O)NC(=O)CNC(=O)[C@@H](CC(=O)O)NC(=O)CNC(=O)[C@H](Cc2c[nH]c3ccccc23)NC(=O)[C@H](Cc2ccccc2)NC(=O)[C@H]([C@@H](C)O)NC(=O)[C@H]([C@@H](C)O)NC(=O)[C@H](CCC(=O)O)NC(=O)[C@H](CC(C)C)NC(=O)[C@H](Cc2c[nH]cn2)NC(=O)[C@H]([C@@H](C)O)NC(=O)[C@H](CCC(N)=O)NC(=O)CNC(=O)[C@H]2CCCN2C(=O)[C@H](CCC(N)=O)NC(=O)[C@H]([C@@H](C)O)NC(=O)[C@H](C(C)C)NC(=O)[C@H](CCCNC(=N)N)NC1=O [compound 135] (cyclo(THLETTFWG[dD]GEPKTIRVTQ[dP]GQ)) | – | – | Ki (cyclic nNOS TAMRA probe, mean of triplicates, N.B. = not binding, read-out: Ki): 190 nM
2 | Cyclo-(THLEATFTGDGTPKTIRVTQpG(Qα)) (cyclo(THLEATFTGDGTPKTIRVTQ[dP]GQ); SMILES CC[C@H](C)[C@@H]1NC(=O)[C@H]([C@@H](C)O)NC(=O)[C@H](CCCCN)NC(=O)[C@@H]2CCCN2C(=O)[C@H]([C@@H](C)O)NC(=O)CNC(=O)[C@H](CC(=O)O)NC(=O)CNC(=O)[C@H]([C@@H](C)O)NC(=O)[C@H](Cc2ccccc2)NC(=O)[C@H]([C@@H](C)O)NC(=O)[C@H](C)NC(=O)[C@H](CCC(=O)O)NC(=O)[C@H](CC(C)C)NC(=O)[C@H](Cc2c[nH]cn2)NC(=O)[C@H]([C@@H](C)O)NC(=O)[C@H](CCC(N)=O)NC(=O)CNC(=O)[C@H]2CCCN2C(=O)[C@H](CCC(N)=O)NC(=O)[C@H]([C@@H](C)O)NC(=O)[C@H](C(C)C)NC(=O)[C@H](CCCNC(=N)N)NC1=O) [SEQ ID NO: 59] | abolishes binding | – | –
3 | Cyclo-(THLEAlloTTFTGDGTPKTIRVTQpG(Qα)) (THLEXTFTGDGTPKTIRVTQPGQ; cyclic; allo-threonine at 109; D-proline; cyclized peptide; (5)..(5) X is AlloT; (21)..(21) is D-AA) [SEQ ID NO: 80] | abolish the interaction | – | –
4 | Cyclo-(THLESTFTGDGTPKTIRVTQpG(Qα)) (cyclo(THLESTFTGDGTPKTIRVTQ[dP]GQ); SMILES CC[C@H](C)[C@@H]1NC(=O)[C@H]([C@@H](C)O)NC(=O)[C@H](CCCCN)NC(=O)[C@@H]2CCCN2C(=O)[C@H]([C@@H](C)O)NC(=O)CNC(=O)[C@H](CC(=O)O)NC(=O)CNC(=O)[C@H]([C@@H](C)O)NC(=O)[C@H](Cc2ccccc2)NC(=O)[C@H]([C@@H](C)O)NC(=O)[C@H](CO)NC(=O)[C@H](CCC(=O)O)NC(=O)[C@H](CC(C)C)NC(=O)[C@H](Cc2c[nH]cn2)NC(=O)[C@H]([C@@H](C)O)NC(=O)[C@H](CCC(N)=O)NC(=O)CNC(=O)[C@H]2CCCN2C(=O)[C@H](CCC(N)=O)NC(=O)[C@H]([C@@H](C)O)NC(=O)[C@H](C(C)C)NC(=O)[C@H](CCCNC(=N)N)NC1=O) [SEQ ID NO: 52] | – | 7 | –
5 | Cyclo-(THLETT ? -Me-FTGDGTPKTIRVTQpG(Qα)) (THLETTXTGDGTPKTIRVTQPGQ; cyclic; N-methyl F111; D-proline; cyclized peptide; (7)..(7) X is N-Me-F; (21)..(21) is D-AA) [SEQ ID NO: 90] | abolished the interaction | – | –
6 | Cyclo-(THLETTFTGDGTPKSIRVTQpG(Qα)) (cyclo(THLETTFTGDGTPKSIRVTQ[dP]GQ); SMILES CC[C@H](C)[C@@H]1NC(=O)[C@H](CO)NC(=O)[C@H](CCCCN)NC(=O)[C@@H]2CCCN2C(=O)[C@H]([C@@H](C)O)NC(=O)CNC(=O)[C@H](CC(=O)O)NC(=O)CNC(=O)[C@H]([C@@H](C)O)NC(=O)[C@H](Cc2ccccc2)NC(=O)[C@H]([C@@H](C)O)NC(=O)[C@H]([C@@H](C)O)NC(=O)[C@H](CCC(=O)O)NC(=O)[C@H](CC(C)C)NC(=O)[C@H](Cc2c[nH]cn2)NC(=O)[C@H]([C@@H](C)O)NC(=O)[C@H](CCC(N)=O)NC(=O)CNC(=O)[C@H]2CCCN2C(=O)[C@H](CCC(N)=O)NC(=O)[C@H]([C@@H](C)O)NC(=O)[C@H](C(C)C)NC(=O)[C@H](CCCNC(=N)N)NC1=O) [SEQ ID NO: 50] | – | 25 | –
